Data: patent publication US20240117011A1

Molecular target: full-length SARS-CoV-2 spike, WA-1 / Wuhan-1 (S wt) (SARS-CoV-2) (UniProt P0DTC2)
Test: cell-based or functional assay

Question: How did the pseudotyped virus neutralization IC50 turn out when LY-CoV555 (antibody) was run?
Answer: 0.0071 µg/mL

Question: And the pseudotyped virus neutralization IC80?
Answer: 0.0357 µg/mL
